From patent US20260000752A1 (AKSTON BIOSCIENCES, published 2026)

Target: T1, recombinant human Fc(gamma)RI, biotinylated (R&D Systems) (human, UniProt P12314 16-288)
T1 construct: also called rhFc(gamma) receptor I; Fc(gamma) Receptor I
Assay: ELISA pH 7.4; insulin-Fc coated, biotinylated rhFc(gamma)RI titrated (Example 51)

T1 sequence (P12314 16-288 limits assumed): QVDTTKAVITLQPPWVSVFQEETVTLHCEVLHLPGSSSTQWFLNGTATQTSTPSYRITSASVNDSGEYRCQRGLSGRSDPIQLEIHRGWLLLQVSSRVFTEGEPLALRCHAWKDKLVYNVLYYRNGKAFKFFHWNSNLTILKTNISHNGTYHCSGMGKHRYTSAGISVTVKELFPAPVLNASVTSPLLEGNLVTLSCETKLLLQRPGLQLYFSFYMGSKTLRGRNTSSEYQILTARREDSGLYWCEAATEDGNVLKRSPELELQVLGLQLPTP

B1: insulin-Fc fusion protein of SEQ ID NO: 29 (Fc fusion)
chain: FVNQHLCGSHLVEALELVCGERGFHYGGGGGGSGGGGGIVEQCCTSTCSLDQLENYCGGGGGQGGGGQGGGGQGGGGGDCPKCPAPEMLGGPSVFIFPPKPKDTLLIARTPEVTCVVVDLDPEDPEVQISWFVDGKQMQTAKTQPREEQFNGTYRVVSVLPIGHQDWLKGKQFTCKVNNKALPSPIERTISKARGQAHQPSVYVLPPSREELSKNTVSLTCLIKDFFPPDIDVEWQSNGQQEPESKYRTTPPQLDEDGSYFLYSKLSVDKSRWQRGDTFICAVMHEALHNHYTQESLSHSPG
binding result: binds
